From the supplement of paper PMC10724198
± gives the standard deviation of the averaged measurements.

Assays:
[1] = tested on: Saccharomyces cerevisiae; assay: protein stability index of tFT-peptide fusion (C-terminal peptide) (PSI (0-1 scale)); higher = more stable (slower turnover)
Protocol: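 MPS profiling in S. cerevisiae of the tFT-X12 degron library: putative degron peptides plus stable controls, 12 aa, fused to the C-terminus of a sfGFP-mCherry timer. Cells are FACS-sorted into 8 mCherry/sfGFP bins and deep-sequenced. PSI runs from 0 (unstable) to 1 (stable). Backgrounds are wild type, das1Δ and doa10Δ at 30 °C, and wild type, das1Δ, cdc34-1 and cdc53-1 at 37 °C; 2-3 technical replicates each.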

[2] = tested on: Saccharomyces cerevisiae; assay: as above; details: genetic background: wild type; temperature: 30 C
[3] = genetic background: cdc34-1, temperature: 37 C
[4] = genetic background: cdc53-1, temperature: 37 C
[5] = genetic background: das1 deletion, temperature: 30 C
[6] = genetic background: das1 deletion, temperature: 37 C
[7] = genetic background: doa10 deletion, temperature: 30 C
[8] = genetic background: wild type, temperature: 30 C
[9] = genetic background: wild type, temperature: 37 C
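Also: PSI is a weighted mean of sequencing reads over stability bins, variants kept only with over 10 reads, mCherry proximal and sfGFP distal, peptide attached via GGGS linker.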

Sequence	protein stability index [1, 3]	protein stability index [1, 4]	protein stability index [1, 5]	protein stability index [1, 6]	protein stability index [1, 7]	protein stability index [1, 8]	protein stability index [1, 9]	protein stability index [2]
SAVLFLLFVYVR	0.0536 ± 0.0084	0.081 ± 0.012	0.156 ± 0.026	0.234 ± 0.011	0.1678 ± 0.00051	0.14 ± 0.046	0.176 ± 0.023	0.254 ± 0.0093
VWFGGFVCSVLG	0.366 ± 0.019	0.361 ± 0.012	0.314 ± 0.028	0.4478 ± 0.0026	0.244 ± 0.0056	0.297 ± 0.026	0.415 ± 0.018	0.393 ± 0.039
CGVWVVVASAYR	0.43 ± 0.019	0.483 ± 0.03	0.302 ± 0.02	0.49431 ± 0.00019	0.2812 ± 0.0017	0.304 ± 0.019	0.508 ± 0.0093	0.377 ± 0.03
CGLLWFYSFFLF	0.502 ± 0.019	0.491 ± 0.013	0.391 ± 0.04	0.5187 ± 0.0046	0.375 ± 0.012	0.316 ± 0.013	0.465 ± 0.018	0.38 ± 0.021
HFLRYCSWFGLL	0.656 ± 0.032	0.745 ± 0.015	0.6558 ± 0.0024	0.781 ± 0.013	0.142 ± 0.014	0.171 ± 0.017	0.353 ± 0.0095	0.15 ± 0.0097
VLVSYAIVILYL	0.128 ± 0.0017	0.141 ± 0.03	0.136 ± 0.043	0.293 ± 0.029	0.12 ± 0.008	0.149 ± 0.019	0.268 ± 0.026	0.193 ± 0.002
SKSRKTGWMLIS	0.622 ± 0.055	0.743 ± 0.029	0.632 ± 0.033	0.74 ± 0.013	0.156 ± 0.014	0.164 ± 0.033	0.427 ± 0.022	0.153 ± 0.015
GCYWPKTLGILC	0.546 ± 0.018	0.555 ± 0.02	0.408 ± 0.021	0.568 ± 0.0092	0.346 ± 0.0062	0.378 ± 0.025	0.56 ± 0.032	0.465 ± 0.004
LRGIVSVWILRA	0.501 ± 0.034	0.56 ± 0.0093	0.441 ± 0.017	0.605 ± 0.0076	0.149 ± 0.0028	0.148 ± 0.0039	0.282 ± 0.0057	0.249 ± 0.025
LSIGCRCLWGWF	0.718 ± 0.029	0.7548 ± 0.004	0.631 ± 0.013	0.762 ± 0.022	0.577 ± 0.009	0.5967 ± 0.0059	0.708 ± 0.026	0.465 ± 0.051
KIVNNTKKNKCH	0.638 ± 0.048	0.684 ± 0.0087	0.652 ± 0.039	0.738 ± 0.012	0.153 ± 0.021	0.195 ± 0.046	0.26 ± 0.058	0.226 ± 0.025
LFGFLCVVMCCG	0.533 ± 0.014	0.521 ± 0.0067	0.44 ± 0.02	0.511 ± 0.03	0.412 ± 0.023	0.4422 ± 0.00067	0.485 ± 0.034	0.434 ± 0.028
FPFFVFRVWFGA	0.4642 ± 0.0036	0.535 ± 0.01	0.414 ± 0.026	0.565 ± 0.006	0.32953 ± 0.00015	0.346 ± 0.033	0.502 ± 0.022	0.464 ± 0.014
SNFFPVPLLLFR	0.211 ± 0.0084	0.117 ± 0.024	0.309 ± 0.016	0.383 ± 0.0094	0.647 ± 0.024	0.297 ± 0.019	0.327 ± 0.031	0.383 ± 0.088
WCAMITVFCGSG	0.268 ± 0.035	0.29 ± 0.041	0.214 ± 0.037	0.4101 ± 0.0027	0.179 ± 0.015	0.208 ± 0.033	0.3796 ± 0.0026	0.34 ± 0.016
ALLVLTVSYVFS	0.045 ± 0.011	0.0772 ± 0.044	0.0924 ± 0.028	0.188 ± 0.0081	0.057 ± 0.035	0.0839 ± 0.013	0.153 ± 0.031	0.167 ± 0.022
HPLYWRCVVVLN	0.213 ± 0.034	0.243 ± 0.024	0.211 ± 0.026	0.3733 ± 0.00077	0.073 ± 0.012	0.066 ± 0.031	0.0862 ± 0.015	0.15 ± 0.044
DIGCLWSKTRLC	0.669 ± 0.019	0.7585 ± 0.0073	0.652 ± 0.0094	0.763 ± 0.015	0.324 ± 0.022	0.359 ± 0.017	0.6042 ± 0.0039	0.431 ± 0.12
YYFFLTFLCYVF	0.153 ± 0.024	0.216 ± 0.039	0.154 ± 0.023	0.255 ± 0.01	0.148 ± 0.019	0.112 ± 0.027	0.221 ± 0.011	0.207 ± 0.018
VWFFLLSFANRL	0.4767 ± 0.0035	0.5386 ± 0.004	0.465 ± 0.043	0.517 ± 0.0083	0.466 ± 0.029	0.45 ± 0.0099	0.4845 ± 0.00053	0.476 ± 0.015

Sequence	protein stability index [1, 3]	protein stability index [1, 4]	protein stability index [1, 5]	protein stability index [1, 6]	protein stability index [1, 7]	protein stability index [1, 8]	protein stability index [1, 9]	protein stability index [2]
GGFLLRGLFLFL	0.613 ± 0.032	0.652 ± 0.016	0.55 ± 0.024	0.6623 ± 0.0034	0.542 ± 0.025	0.52 ± 0.022	0.63 ± 0.015	0.525 ± 0.049
IGSARIKLLCYH	0.6024 ± 0.0044	0.705 ± 0.014	0.592 ± 0.017	0.7434 ± 0.0024	0.124 ± 0.017	0.165 ± 0.027	0.331 ± 0.031	0.213 ± 0.0061
SPLHGFLFLVLL	0.395 ± 0.03	0.445 ± 0.0069	0.403 ± 0.025	0.523 ± 0.012	0.528 ± 0.024	0.403 ± 0.028	0.496 ± 0.021	0.424 ± 0.021
CLFRVCLFILSI	0.397 ± 0.019	0.49 ± 0.049	0.333 ± 0.038	0.489 ± 0.0053	0.3114 ± 0.00076	0.3 ± 0.028	0.467 ± 0.013	0.386 ± 0.0041
VPSMSIVWCRVL	0.383 ± 0.036	0.446 ± 0.0055	0.417 ± 0.02	0.511 ± 0.01	0.168 ± 0.01	0.123 ± 0.018	0.12 ± 0.005	0.213 ± 0.048
FFILVFFSLLST	0.2927 ± 0.0014	0.445 ± 0.018	0.283 ± 0.049	0.441 ± 0.032	0.244 ± 0.041	0.274 ± 0.033	0.4056 ± 0.0022	0.404 ± 0.032
MSQVRYQRATRA	0.657 ± 0.074	0.676 ± 0.044	0.608 ± 0.0071	0.692 ± 0.0087	0.526 ± 0.021	0.535 ± 0.023	0.648 ± 0.011	0.54 ± 0.067
FWGRAGVWRLKG	0.684 ± 0.044	0.759 ± 0.019	0.651 ± 0.021	0.7821 ± 0.0066	0.228 ± 0.0067	0.276 ± 0.026	0.595 ± 0.022	0.334 ± 0.025
RCIFYHSPVLCL	0.469 ± 0.022	0.515 ± 0.022	0.399 ± 0.023	0.51 ± 0.0089	0.365 ± 0.0064	0.398 ± 0.018	0.511 ± 0.041	0.449 ± 0.02
KALSSSYFGTRL	0.69 ± 0.025	0.745 ± 0.015	0.648 ± 0.014	0.743 ± 0.0082	0.649 ± 0.019	0.6755 ± 0.0058	0.7128 ± 0.007	0.735 ± 0.062
SLSPVFVAVWFL	0.466 ± 0.012	0.4933 ± 0.0015	0.383 ± 0.057	0.537 ± 0.01	0.323 ± 0.0075	0.331 ± 0.016	0.474 ± 0.026	0.432 ± 0.013
GSITFFKMVQSG	0.656 ± 0.021	0.748 ± 0.012	0.622 ± 0.021	0.744 ± 0.012	0.376 ± 0.014	0.417 ± 0.028	0.687 ± 0.011	0.469 ± 0.023
FLFFWRASLFFW	0.116 ± 0.0025	0.164 ± 0.0095	0.183 ± 0.029	0.278 ± 0.027	0.178 ± 0.018	0.15 ± 0.029	0.191 ± 0.022	0.229 ± 0.023
WEISNFFGCFIG	0.671 ± 0.031	0.758 ± 0.026	0.683 ± 0.044	0.772 ± 0.017	0.325 ± 0.0037	0.365 ± 0.01	0.552 ± 0.071	0.428 ± 0.028
LFVFVISSSSFP	0.442 ± 0.0068	0.539 ± 0.035	0.321 ± 0.025	0.553 ± 0.0059	0.291 ± 0.022	0.306 ± 0.025	0.503 ± 0.015	0.395 ± 0.04
GTLVFTYLVLRC	0.0997 ± 0.012	0.0693 ± 0.0078	0.197 ± 0.02	0.252 ± 0.032	0.365 ± 0.027	0.167 ± 0.035	0.229 ± 0.0083	0.314 ± 0.008
AFFLLVSLLVSP	0.0637 ± 0.025	0.0989 ± 0.021	0.122 ± 0.046	0.219 ± 0.0041	0.0944 ± 0.0098	0.132 ± 0.041	0.186 ± 0.0021	0.204 ± 0.097
YSVNSLFCKVFG	0.469 ± 0.012	0.4777 ± 0.00052	0.348 ± 0.031	0.541 ± 0.0043	0.3135 ± 0.0031	0.361 ± 0.022	0.5054 ± 0.002	0.417 ± 0.032
RSITFFPVCLVK	0.316 ± 0.079	0.389 ± 0.06	0.293 ± 0.029	0.491 ± 0.014	0.253 ± 0.021	0.289 ± 0.018	0.426 ± 0.013	0.382 ± 0.016
